Here are results for ten molecules from patent US10011657B2, “Anti-CS1 antibodies and antibody drug conjugates” (AbbVie Biotherapeutics Inc., priority 2014, dated 2018).

Changes are numbered by the printed parent chain. Read-outs that look alike come from different tables or passages of the source. Bounds are passed on as bounds.

The test system of one test is OPM-2 xenografts. As to the kind of experiment: OPM-2 xenografts in effector-cell-negative NSG mice. It counts as in vivo. How it is done:
OPM-2 xenografts were prepared and conducted as previously described. NSG mice (NOD.Cg-Prkdcscid Il2rgtm1Wj1/SzJ) from The Jackson Laboratory (strain code 05557) were used. This strain lacks effector cells and eliminates the ADCC mechanism for all antibodies. AB095, an antibody that targets tetanus toxoid, was run as control. Dosing of test ADCs was normalized such that equal masses of the PBD component were delivered.
OPM-2 xenografts were prepared and conducted as previously described. NSG mice (NOD.Cg-Prkdcscid Il2rgtm1Wj1/SzJ) from The Jackson Laboratory (strain code 05557) were used. This strain lacks effector cells and eliminates the ADCC mechanism for all antibodies. AB095, an antibody that targets tetanus toxoid was run as control. Dosing of test ADCs was normalized such that equal masses of the SN38 component were delivered.
The combination of Hu34C3-MMAE E2 plus carfilzomib inhibited tumor growth (TGImax 43% (FIG. 26A) and TGImax 59% (FIG. 26B)) at similar levels to Hu34C3-MMAE E2 alone.
Efficacy of Hu34C3-MMAE E2 in combination with pomalidomide ((also known as 4-Amino-2-(2,6-dioxopiperidin-3-yl)isoindole-1,3-dione; marketed under the tradename POMALYST by Celgene Corporation, Summit, N.J. 07901) and/or dexamethasone ((also known as 8S,9R,10S,11S,13S,14S,16R,17R)-9-fluoro-11,17-dihydroxy-17-(2-hydroxyacetyl)-10,13,16-trimethyl-6,7,8,9,10,11,12,13,14,15,16,17-dodecahydro-3H-cyclopenta[a]phenanthren-3-one) was determined in subcutaneous xenografts of OPM-2 cells (van Rhee et al., 2009 Mol. Cancer Therapeutics 8: 2616-24). Effector-cell-negative mice were used (NSG strain) in this experiment. Vehicle (PBS/DMSO) was run as a control. ADCs were dosed at 3 or 6 mg/kg i.p.; pomalidomide was dosed at 20 mg/kg i.p. and dexamethasone was dosed at 10 mg/kg i.p.
Efficacy of Hu34C3-MMAE E2 was determined in subcutaneous xenografts of OPM-2 cells (van Rhee et al., 2009 Mol. Cancer Therapeutics 8: 2616-24). These xenografts were treated with bortezomib twice a week for two weeks. […] These tumors were re-randomized and either continued with bortezomib treatment or were switched to lenalidomide plus dexamethasone, pomalidomide, Hu34C3-MMAE E2, or Hu34C3-MMAE E2 plus pomalidomide treatments.

Test [1] has as its target T1, human CS1 (Homo sapiens, UniProt Q9NQ25).
T1 construct: expressed in transfected cells; host or cells: 293s cells
The test is described as follows: Flow-cytometry competition assay with AF488-labeled PDL241 (humanized antibodies, Example 5). It counts as binding. Particulars: 293s cells transfected with human CS1; 50 μg/mL test antibody, 5 μg/mL labeled PDL241. How it is done:
293s cells transfected with human CS1 were incubated at various concentrations with an AF488 labeled PDL241 antibody. […] Transfected 293s cells (300,000 cells per data point) were incubated for 30 min (on ice) with a tenfold excess of unlabeled test antibody (50 μg/mL). After the incubation, 5 μg/mL of AF488-labeled PDL241 was added to the cells and incubated on ice for 30 minutes. After this incubation, the cells were washed with PBS+1% FBS and binding of AF488-labeled PDL241 was determine by flow cytometry.

The target of test [2] is T1, human CS1. The test is described as follows: Flow-cytometry competition assay with AF488-labeled elotuzumab. The class given is binding. Particulars: 293s cells transfected with human CS1; 100 μg/mL test antibody, 10 μg/mL labeled elotuzumab. How it is done: A similar experiment was conducted with AF488-labeled elotuzumab at 10 μg/mL. Transfected 293s cells (300,000 cells per data point) were incubated for 30 min (on ice) with a tenfold excess of unlabeled antibody (100 μg/mL). After the incubation, 10 μg/mL of AF488-labeled elotuzumab was added to the cells and incubated on ice for 30 minutes. After this incubation, the cells were washed with PBS+1% FBS and binding of AF488-labeled elotuzumab determined by flow cytometry.

The next test concerns the target T2, HuCS1 (Homo sapiens, UniProt Q9NQ25).
T2 construct: L-363 cells (human multiple myeloma cell line) expressing HuCS1; endogenous in cells; host or cells: L-363 human multiple myeloma cell line
The test is described as follows: Flow-cytometry competition assay with AF488-labeled Luc34.3.8 on L-363 cells. It counts as binding. Particulars: 20 μg/mL test antibody, 2 μg/mL labeled Luc34.3.8. How it is done: A similar experiment was conducted with AF488-labeled Luc34.3.8 at 2 μg/mL. L-363 cells (human multiple myeloma cell line) expressing HuCS1 (300,000 cells per data point) was incubated for 30 min (on ice) with a tenfold excess of unlabeled test antibody (20 μg/mL). After the incubation, 2 μg/mL of AF488-labeled Luc34.3.8 was added to the cells and incubated on ice for 30 minutes. After this incubation, the cells were washed with PBS+1% FBS, and binding of AF488-labeled […] determined by flow cytometry.

Test [3] deals with T1, human CS1. As to the kind of experiment: Flow-cytometry competition assay with AF488-labeled Hu34C3. It counts as binding. As to conditions: 293s cells transfected with human CS1; 100 μg/mL test antibody, 10 μg/mL labeled Hu34C3. How it is done:
For the competition assays, transfected 293s cells (300,000 cells per data point) were incubated for 30 min (on ice) with a tenfold excess of unlabeled test antibody (100 μg/mL).

For test [4], the target named is T1, human CS1. As to the kind of experiment: Flow-cytometry competition assay with AF488-labeled PDL241 (murine antibodies, Example 2). The class given is binding. Particulars: 293s cells transfected with human CS1; 60 μg/mL unlabeled test antibody, 6 μg/mL labeled PDL241; less than 20% inhibition = does not compete. How it is done:
293s cells transfected with human CS1 (300,000 cells per data point) were incubated at various concentrations with an AF488-labeled PDL241 antibody. The concentration at which 80% of maximal binding occurred was identified (6 μg/mL) and used for the subsequent competition assays.
For the competition assays, transfected 293s cells (300,000 cells per data point) were incubated for 30 min (on ice) with a tenfold excess of unlabeled test antibody (60 μg/mL). After the incubation, 6 μg/mL of AF488-labeled PDL241 was added to the cells and incubated on ice for 30 minutes. After this incubation, the cells were washed with PBS+1% FBS, and binding of AF488-labeled PDL241 was determine by flow cytometry.

Test [5] relates to L-363 human multiple myeloma cells. As to the kind of experiment: In vitro proliferation assay (CellTiter-Blue), L-363 cells. As to conditions: four days. The class given is cell-based. How it is done: All antibodies were conjugated to each of monomethyl auristatin E (“MMAE”; auristatin microtubule inhibitor), monomethyl auristatin F (“MMAF”; auristatin microtubule inhibitor) and duocarmycin (DNA damaging drug) using previously described methods (Doronina et al., 2003, Nat Biotechnology 21(7):778-784; Polson et al., 2007, Blood 1102:616-623). Drug loading for each ADC was similar. 10,000-20,000 cells (L-363 human multiple myeloma cells) expressing HuCS1 were plated into 96-well plates, and different amounts of ADCs added to the cells. Four days post addition of ADC, cell viability was measured using the CellTiter-Blue® Cell Viability Assay (Promega), and IC50 values were calculated.
(In general: Resazurin is reduced to fluorescent resorufin, in cell work by metabolically active cells.)

Where [6] appears, read: Example 29, low-dose Hu34C3-MMAE E2 3 mg/kg i.p., pomalidomide 20 mg/kg i.p., dexamethasone 10 mg/kg i.p.
Where [7] appears, read: antibody conjugated to MMAF, read-out: IC50, MMAF ADC.
The mark [8] stands for this setting: antibody conjugated to duocarmycin, read-out: IC50, Duo ADC.
The mark [9] stands for this setting: antibody conjugated to MMAE, read-out: IC50, MMAE ADC.

T1 sequence (Q9NQ25 23-335): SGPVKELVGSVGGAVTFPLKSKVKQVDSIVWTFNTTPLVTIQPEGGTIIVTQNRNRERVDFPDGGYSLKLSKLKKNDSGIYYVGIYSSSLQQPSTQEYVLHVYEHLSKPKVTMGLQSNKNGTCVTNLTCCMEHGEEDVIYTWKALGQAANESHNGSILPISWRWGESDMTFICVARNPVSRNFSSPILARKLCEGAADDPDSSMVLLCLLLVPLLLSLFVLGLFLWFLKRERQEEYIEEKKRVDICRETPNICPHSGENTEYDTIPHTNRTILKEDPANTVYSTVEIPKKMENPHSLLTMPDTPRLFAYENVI
T2 sequence (Q9NQ25 23-335): as above

Consider `CC(C)C[C@H](NC(=O)[C@H](Cc1ccccc1)NC(=O)c1cnccn1)B(O)O` [bortezomib, [(1R)-3-methyl-1-[[(2S)-1-oxo-3-phenyl-2-[(pyrazinylcarbonyl)amino]propyl]amino]butyl]boronic acid], for which the TGImax in the test with OPM-2 xenografts (Example 27, Hu34C3-MMAE E2 3 mg/kg, bortezomib 1 mg/kg) was determined as 58%. In addition, in the test with OPM-2 xenografts (Example 31, bortezomib twice a week for two weeks), the “TGImax at end of two week treatment” value is listed as 66%.

In the case of `CC(C)C[C@H](NC(=O)[C@H](CCc1ccccc1)NC(=O)CN1CCOCC1)C(=O)N[C@@H](Cc1ccccc1)C(=O)N[C@@H](CC(C)C)C(=O)[C@@]1(C)CO1` [carfilzomib, (S)-4-Methyl-N-((S)-1-(((S)-4-methyl-1-((R)-2-methyloxiran-2-yl)-1-oxopentan-2-yl)amino)-1-oxo-3-phenylpropan-2-yl)-2-((S)-2-(2-morpholinoacetamido)-4-phenylbutanamido)pentanamide], in the test with OPM-2 xenografts (Example 28, single agents, carfilzomib at 1.5 and 3 mg/kg), the TGImax is recorded as less than 10%.

Consider `C[C@@H]1C[C@H]2[C@@H]3CCC4=CC(=O)C=C[C@]4(C)[C@@]3(F)[C@@H](O)C[C@]2(C)[C@@]1(O)C(=O)CO` [dexamethasone], for which the TGImax with OPM-2 xenografts (setting [6]) came to 25%.

As for `Nc1cccc2c1C(=O)N(C1CCC(=O)NC1=O)C2=O` (stereo not drawn) [pomalidomide, 4-Amino-2-(2,6-dioxopiperidin-3-yl)isoindole-1,3-dione], the TGImax in the test on OPM-2 xenografts (setting [6]) is given as 34%.

B1: Hu27A12: humanized anti-CS1 antibody, VH SEQ ID NO: 24, VL SEQ ID NO: 26 (antibody, V domains shown)
VH: EVQLVESGGGLVQPGGSLRLSCAASGFTFSDYYMAWVRQAPGKGLEWVAEINYDGSSTYYVDSVKGRFTISRDNAKNSLYLQMNSLRAEDTAVYYCARDRGFYFDYWGQGTTVTVSS
VL: DVVMTQTPLSLSVTPGQPASISCRSSQSLVHNNGNTYLHWYLQKPGQSPQLLIYKVSNRFSGVPDRFSGSGSGTDFTLKISRVEAEDVGVYFCSQSTHVPPYTFGGGTKVEIK
As for B1, the “Competition with AF488-labeled PDL241 for binding” value with human CS1 [1] was “do not compete with, and bind different epitopes than, PDL241”. Moreover, in the test with human CS1 [2], the “Competition with AF488-labeled elotuzumab for binding” value is “do not compete with, and bind different epitopes than, elotuzumab”. Moreover, in the test with HuCS1, the “Competition with AF488-labeled Luc34.3.8 for binding” value was “do not compete with, and bind different epitopes than, Luc34.3.8”. In addition, the “Competition with AF488-labeled Hu34C3 for binding” value in the test with human CS1 [3] was “None of the anti-CS1 antibodies tested (including Hu27A12 and Hu31D2) compete with Hu34C3”.

B2: Mu12D10 (conjugate)
VH: EVKLVESEGGLVQPGSSMKLSCTASGFTFSDYFMAWVRQVPEKGLEWVASINYDGNSTYFLDSLKSRFIISRDNAKNILYLQMSSLKSEDTATYYCARDRGFYFDYWGQGTTLTVSS
VL: DVVMTQTPLSLPVSLGDQASISCRFSQSLVHRNGNTYLHWYLQKPGQSPKLLIYKVSNRFSGVPDRFSGSGSGTDFTLKISRVEAEDLGVYFCSQSTHVRPYTFGGGTKLEIR
modifications: conjugate
One may read the IC50 as the midpoint of a concentration-inhibition curve. Take B2: in the test with human CS1 [4], the “Competition with AF488-labeled PDL241 for binding” value is on record as “do not compete with PDL241”. The IC50 in test [5] (setting [7]) was 150 pM; in test [5] (setting [8]), 200 pM.

B3: Mu27A12 (conjugate)
VH: B2 VH with F33Y, S50E, N56S, F60Y, S85N
VL: B2 VL with F25S, R32N, R100P, R113K
modifications: conjugate
As to B3, the “Competition with AF488-labeled PDL241 for binding” value with human CS1 [4] is “do not compete with PDL241”. For the same molecule, the figures for the IC50 in test [5] (setting [9]), in test [5] (setting [7]) and in test [5] (setting [8]) were 3500 pM, 110 pM and 190 pM, respectively.

B4: Mu14C11 (conjugate)
VH: B2 VH with F33Y, N56S, F60Y, S85G, Y95S
VL: B2 VL with F25S, R100P, R113K
modifications: conjugate
B4: the “Competition with AF488-labeled PDL241 for binding” value with human CS1 [4] is recorded as “do not compete with PDL241”. Besides, the figures for the IC50 in test [5] (setting [7]) and in test [5] (setting [8]) were 250 pM and 310 pM, respectively.

B5: Mu34C3: murine anti-CS1 antibody, VH SEQ ID NO: 5, VL SEQ ID NO: 6; in Table 5 tested as MMAE, MMAF, duocarmycin ADCs (antibody, V domains shown)
VH: B2 VH with F33Y, N56S, F60Y, Y80F, S84N, F102Y
VL: B2 VL with F25S, R32S, R100P, Y102F, R113K
Take B5: the “Competition with AF488-labeled PDL241 for binding” value with human CS1 [4] is on record as “do not compete with PDL241”. In addition, the results for the half-inhibitory concentration (IC50) in test [5] (setting [9]), in test [5] (setting [7]) and in test [5] (setting [8]) were 1300 pM, 80 pM and 250 pM, respectively.

B6: Mu31D2 (conjugate)
VH: B2 VH with F33Y, S50D, N56G, F60Y, Y80C, F102Y
VL: B2 VL with F25S, R32S, R100P, Y102F, R113K
modifications: conjugate
For B6, the “Competition with AF488-labeled PDL241 for binding” value with human CS1 [4] is reported as “do not compete with PDL241”. The IC50 in test [5] (setting [9]) was 3500 pM; in test [5] (setting [7]) it was 120 pM; in test [5] (setting [8]) it was 200 pM.
